Among the data in paper PMC11139282, “Structure and activity of the septal peptidoglycan hydrolysis machinery crucial for bacterial cell division” (PLOS Biology, 2024) are response (OmpC adjusted) values, retold here.

B1: FtsX(His&Myc) [E. coli K-12] / FtsE(Flag) [E. coli K-12] (parent)
chain 1: MIRFEHVSKAYLGGRQALQGVTFHMQPGEMAFLTGHSGAGKSTLLKLICGIERPSAGKIWFSGHDITRLKNREVPFLRRQIGMIFQDHHLLMDRTVYDNVAIPLIIAGASGDDIRRRVSAALDKVGLLDKAKNFPIQLSGGEQQRVGIARAVVNKPAVLLADEPTGNLDDALSEGILRLFEEFNRVGVTVLMATHDINLISRRSYRMLTLSDGHLHGGVGHE
chain 2: MNKRDAINHIRQFGGRLDRFRKSVGGSGDGGRNAPKRAKSSPKPVNRKTNVFNEQVRYAFHGALQDLKSKPFATFLTVMVIAISLTLPSVCYMVYKNVNQAATQYYPSPQITVYLQKTLDDDAAAGVVAQLQAEQGVEKVNYLSREDALGEFRNWSGFGGALDMLEENPLPAVAVVIPKLDFQGTESLNTLRDRITQINGIDEVRMDDSWFARLAALTGLVGRVSAMIGVLMVAAVFLVIGNSVRLSIFARRDSINVQKLIGATDGFILRPFLYGGALLGFSGALLSLILSEILVLRLSSAVAEVAQVFGTKFDINGLSFDECLLLLLVCSMIGWVAAWLATVQHLRHFTPE

The assay covers variants of B1. The assay can be described thus: western blot of membrane fraction, quantified (FtsE retained on membrane with FtsX). Conditions: with FtsE(Flag) [E. coli K-12]; parent: 1.3; read off a plot. On the technique in general: A western blot detects proteins with antibodies after separation by electrophoresis.
Consider chain 2 MNKRDAINHIRQFGGRLDRFRKSVGGSGDGGRNAPKRAKSSPKPVNRKTNVFNEQVRYAFHGALQDLKSKPFATFLTVMVIAISLTLPSVCYMVYKNVNQAATQYYPSPQITVYLQKTLDDDAAAGVVAQLQAEQGVEKVNYLSREDALGEFRNWSGFGGALDMLEENPLPAVAVVIPKLDFQGTESLNTLRDRITQINGIDEVRMDDSWFARLAALTGLVGRVSAMIGVLMVAAVFLVIGNSVRLSIFARRDSINVQKLIGATDGAILRPFLYGGALLGFSGALLSLILSEILVLRLSSAVAEVAQVFGTKFDINGLSFDECLLLLLVCSMIGWVAAWLATVQHLRHFTPE [chain 2 F267A], for which the response (OmpC adjusted) came out at 0.5.

On to chain 2 MNKRDAINHIRQFGGRLDRFRKSVGGSGDGGRNAPKRAKSSPKPVNRKTNVFNEQVRYAFHGALQDLKSKPFATFLTVMVIAISLTLPSVCYMVYKNVNQAATQYYPSPQITVYLQKTLDDDAAAGVVAQLQAEQGVEKVNYLSREDALGEFRNWSGFGGALDMLEENPLPAVAVVIPKLDFQGTESLNTLRDRITQINGIDEVRMDDSWFARLAALTGLVGRVSAMIGVLMVAAVFLVIGNSVRLSIFARRDSINVQKLDGATDGFILRPFLYGGALLGFSGALLSLILSEILVLRLSSAVAEVAQVFGTKFDINGLSFDECLLLLLVCSMIGWVAAWLATVQHLRHFTPE [chain 2 I261D], for which the response (OmpC adjusted) is 0.11.

As to chain 2 MNKRDAINHIRQFGGRLDRFRKSVGGSGDGGRNAPKRAKSSPKPVNRKTNVFNEQVRYAFHGALQDLKSKPFATFLTVMVIAISLTLPSVCYMVYKNVNQAATQYYPSPQITVYLQKTLDDDAAAGVVAQLQAEQGVEKVNYLSREDALGEFRNWSGFGGALDMLEENPLPAVAVVIPKLDFQGTESLNTLRDRITQINGIDEVRMDDSWFARLAALTGLVGRVSAMIGVLMVAAVFLVIGNSVRLSIFARRDSINPQKLIGATDGFILRPFLYGGALLGFSGALLSLILSEILVLRLSSAVAEVAQVFGTKFDINGLSFDECLLLLLVCSMIGWVAAWLATVQHLRHFTPE [chain 2 V257P], the response (OmpC adjusted) amounted to 0.38.

For the variant chain 2 MNKRDAINHIRQFGGRLDRFRKSVGGSGDGGRNAPKRAKSSPKPVNRKTNVFNEQVRYAFHGALQDLKSKPFATFLTVMVIAISLTLPSVCYMVYKNVNQAATQYYPSPQITVYLQKTLDDDAAAGVVAQLQAEQGVEKVNYLSREDALGEFRNWSGFGGALDMLEENPLPAVAVVIPKLDFQGTESLNTLRDRITQINGIDEVRMDDSWFARLAALTGLVGRVSAMIGVLMVAAVFLVIGNSVRLSIFARRDSINVQKLIGAKDGFILRPFLYGGALLGFSGALLSLILSEILVLRLSSAVAEVAQVFGTKFDINGLSFDECLLLLLVCSMIGWVAAWLATVQHLRHFTPE [chain 2 T264K], the response (OmpC adjusted) is 0.51.
